Here are results for 1 protein from US20080160023.

The target in data set [1] is T1, recombinant mouse Scp2 with C-terminal myc-6xHis tag, P32020.
T1 chain: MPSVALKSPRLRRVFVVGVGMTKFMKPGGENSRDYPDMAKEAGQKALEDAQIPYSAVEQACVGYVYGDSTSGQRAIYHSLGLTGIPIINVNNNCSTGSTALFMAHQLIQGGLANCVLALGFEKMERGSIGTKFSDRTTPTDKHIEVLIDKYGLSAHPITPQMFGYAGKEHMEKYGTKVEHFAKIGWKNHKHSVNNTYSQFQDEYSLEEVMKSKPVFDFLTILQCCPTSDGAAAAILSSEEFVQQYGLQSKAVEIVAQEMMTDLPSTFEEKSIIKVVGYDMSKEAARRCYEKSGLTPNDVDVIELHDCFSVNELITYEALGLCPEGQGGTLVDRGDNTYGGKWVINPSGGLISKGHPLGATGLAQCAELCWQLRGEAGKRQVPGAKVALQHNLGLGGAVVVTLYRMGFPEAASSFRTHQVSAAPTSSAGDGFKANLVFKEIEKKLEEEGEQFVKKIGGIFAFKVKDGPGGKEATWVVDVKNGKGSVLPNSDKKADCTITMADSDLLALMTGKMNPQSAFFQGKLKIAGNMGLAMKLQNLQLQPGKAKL

Data set [2] addresses T2, recombinant rat Acaa1 with 6xHis N-terminal tag, P07871.
T2 chain: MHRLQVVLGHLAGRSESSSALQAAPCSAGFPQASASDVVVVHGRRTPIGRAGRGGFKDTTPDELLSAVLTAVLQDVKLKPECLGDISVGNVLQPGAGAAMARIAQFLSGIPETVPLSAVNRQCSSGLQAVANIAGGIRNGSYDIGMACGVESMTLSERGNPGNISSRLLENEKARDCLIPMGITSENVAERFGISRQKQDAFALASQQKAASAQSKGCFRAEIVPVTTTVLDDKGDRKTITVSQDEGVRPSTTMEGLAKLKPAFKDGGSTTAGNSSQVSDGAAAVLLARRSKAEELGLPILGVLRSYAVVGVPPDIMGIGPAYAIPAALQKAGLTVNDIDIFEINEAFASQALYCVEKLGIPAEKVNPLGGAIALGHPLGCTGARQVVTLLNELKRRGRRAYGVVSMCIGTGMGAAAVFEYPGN

Data set [3] has as its target T3, recombinant rat Acox1 with C-terminal myc-6xHis tag, P07872.
T3 chain: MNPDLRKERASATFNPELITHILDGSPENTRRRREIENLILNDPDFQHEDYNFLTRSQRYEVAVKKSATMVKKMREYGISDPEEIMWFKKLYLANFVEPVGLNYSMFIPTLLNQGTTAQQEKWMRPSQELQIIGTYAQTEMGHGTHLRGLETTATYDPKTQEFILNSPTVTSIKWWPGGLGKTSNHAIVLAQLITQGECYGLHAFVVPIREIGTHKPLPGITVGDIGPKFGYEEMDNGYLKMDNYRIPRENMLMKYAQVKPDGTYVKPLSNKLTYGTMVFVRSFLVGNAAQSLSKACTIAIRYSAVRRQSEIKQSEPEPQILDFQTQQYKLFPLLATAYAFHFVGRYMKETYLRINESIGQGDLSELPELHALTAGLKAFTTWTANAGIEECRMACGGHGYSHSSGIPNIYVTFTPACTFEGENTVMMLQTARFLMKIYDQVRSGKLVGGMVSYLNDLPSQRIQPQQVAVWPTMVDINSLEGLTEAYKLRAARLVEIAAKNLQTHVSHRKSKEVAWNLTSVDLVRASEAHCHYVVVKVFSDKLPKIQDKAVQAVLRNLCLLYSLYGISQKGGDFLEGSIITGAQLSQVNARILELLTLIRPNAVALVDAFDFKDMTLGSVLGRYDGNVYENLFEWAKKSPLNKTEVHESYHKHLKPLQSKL

B1: recombinant Tysnd1-FLAG purified from COS-7 cells (protein)
chain 1: MGRQWGPSMRVAEQAGCVVSASRAGQPDAGSWSCSGVILSRNPGLVLCHGGIFTPFLRTGSAALTQTGTAFLPGDSCSDDLRLHVQWGPTAASPAGRADQELPGLCTPQCASLGLEPGAPSRARARPLQPPRPAQLLLLLSCPAFRSHFARLFGADAVDQWHFVSSAPDDAVSEEEEEDQLRALGWFALLRVQRGAAAEERRGPVVTVAPLGAVVKGAPLLACGSPFGAFCPDIFLNTLSRGVLSNAAGPLLLTDARCLPGTEGGGVFAARPAGALVALVAAPLCWKAREWVGLTLLCAAAPLLQVARWALARLHPGSASLSVLLPPPDVSTPRGLPLRDLGPPWAAAAVLVECGTVWGSGVVVAPRLVVTCRHVAPREAARVLVHSATPKNVAIWGQVVFATQETSPYDIAVVSLEEELNGVPTPVPAGHFHEGEPVSVVGFGVFGQACGPSVTSGILSAVVRVDGSPVMLQTTCAVHGGSSGGPLFSSGSGDLLGIVASNTRDNNTGATYPHLNFSIPITVLQPALKQYSQTGDLGGLRELDHTTEPVRVVWRLQRPLSE
chain 2: VPRSKL
As for B1, the “in vitro cleavage (Western blot with anti-cMyc antibody)” value in data set [1] is recorded as “Scp2 was processed to generate C-terminal fragment of 16 kDa”; in data set [3], “Acox1 was cleaved to produce C-terminal fragment of 28 kDa”. Moreover, the “in vitro cleavage (Amido Black staining of the membrane)” value in data set [2] was “Incubation of Tysnd1 with Acaa1 resulted in the removal of 3 kDa PTS2-containing N-terminal propeptide to produce mature Acaa1”.
